Measurements reported in the nanobody polyreactivity screen of Harvey et al. (2022).

Test: yeast display, Sf9 membrane polyspecificity reagent, FACS + sequencing; frameworks hold sequencing errors
Method in brief: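 Galactose-induced (36–48 hours) yeast carrying a synthetic nanobody display library were exposed to 10% biotinylated, detergent-solubilized Sf9 membrane reagent at 4 °C for 1 hour. FACS followed streptavidin microbead enrichment, using low and high (top ~1%) gates for expression (anti-HA) and reagent binding (streptavidin). Colony PCR, MiSeq 2 × 250 sequencing and CDR-length filtering followed. Labels for polyreactivity reflect the gate of origin.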

Which “polyreactivity (PSR sort gate)” value does the source give for “QVQLVESGGGLVQAGGSLRLSCAASGRTSRNNVMGSYRQAPGKERELVAAITKRTDRTYYADSVKGRFTISRDNAKNTVYLQMNSLKPEDTAVYYCAADLSLSTGGRAFPTYGYWGQGTQVTVSS” here?
The value was “high polyreactivity”.

Which “polyreactivity (PSR sort gate)” value does the source give for “QVQLVESGGGLVQAGGSLRLSCAASGRTSRRNAMGWYRQAPGKERELVAAISGSGGRTNSADSVKGRFTISRDNAQNTVYLQMNSLKPEDTAVYYCNVLTRYYLGYDYWGQGTQVTVSS” here?
Its value is “high polyreactivity”.

Which “polyreactivity (PSR sort gate)” value does the source give for “QVQLVESGGGLVQAGGSLRLSCAASGRTSRVYAMGWYRQAPGKERELVAAITWRGGNTYYADSVKGRFTISRDNAKNTVYLQMNSLKPEDTAVYYCAADKYTHKPHGDYWGQGTQVTVSS” here?
Its value is “high polyreactivity”.

For “QVQLVESGGGLVQAGGSLRLSCAASGRTSSIYTMGWYRQAPGKERELVAAIRGRGGNTYYADSVKGRFTISRDYAKNTVYLLMNSLKPEDTAVYYCNAKPQGVGLYRYEYWGQGTQVTVSS”, which “polyreactivity (PSR sort gate)” value is on record?
Its value is “high polyreactivity”.

For “QVQLVESGGGLVQAGGSLRLSCAASGRTSVGYVMGWYRQAPGKERELVASITSGGSTYYADSVKGRFTISRDNAKNTVYLQMNSLKPEDTAVYYCAAQLKSHRTYGHDYWGQGTQVTVSS”, which “polyreactivity (PSR sort gate)” value is on record?
The value was “low polyreactivity”.

With “QVQLVESGGGLVQAGGSLRLSCAASGRTSVIYAMGWYRQAPGKERELVASIRRGGSTSYADSVKGRFTISRDNAKNTVYLQMNSLIPEDTAVYYCAATLVRRARSGPMGYWGQGTQVTVSS” as the sequence, how does the “polyreactivity (PSR sort gate)” value read?
Its value is “high polyreactivity”.

Which “polyreactivity (PSR sort gate)” value does the source give for “QVQLVESGGGLVQAGGSLRLSCAASGRTSYVYAMGWYRQAPGKERELVAAITSSGGSTYYADSVKGRFTISRDNAKNTVYLQMNSLKPEDTAVYYCAAETYPVWGVAFYYWGQGTQVTVSS” here?
The value was “high polyreactivity”.

Which “polyreactivity (PSR sort gate)” value does the source give for “QVQLVESGGGLVQAGGSLRLSCAASGRTSYYYAMGWSRQAPGKERELVAAISRSGGRTYYADSVKGRFTISRDNAKNTVYLQMNSLKPEDTAVYYCAADPRSYDTGRMDYWGQGTQVTVSS” here?
The value was “high polyreactivity”.

Which “polyreactivity (PSR sort gate)” value does the source give for “QVQLVESGGGLVQAGGSLRLSCAASGRTVAPYAMGWYRPAPGKERELVAGITYRTGNTYYADSVKGRFTISRDNAKNTVYLQMNSLKPEDTAVYYCAAYSGYYRPRYNFWGQGTQVNVSS” here?
Its value is “high polyreactivity”.

With “QVQLVESGGGLVQAGGSLRLSCAASGRTVGYNAMGWYRQAPGKERELVAAISRSGDSTYYADSVKGRFTISRDNAKNTVYLQMNSLKPEDTAVYYCATRYVTTGYDYWGQGTQVTVSS” as the sequence, how does the “polyreactivity (PSR sort gate)” value read?
Its value is “low polyreactivity”.

With “QVQLVESGGGLVQAGGSLRLSCAASGRTVKPYAMGWYRQAPGKERELVAAISSGVSTHYADSVKGRFTISRDNAKNSVYLQMNSLKPEDTAVYYCDADDWVNYWFDYWGQGTQVTVSS” as the sequence, how does the “polyreactivity (PSR sort gate)” value read?
Its value is “low polyreactivity”.

For “QVQLVESGGGLVQAGGSLRLSCAASGRTWFYAMGWYRQAPGKERELVAAISGSSGSTYYADSVKGRFTISRDNAKNTVYLQMNSLKPEDTAVYYCAADFWRFYYEYDYWGQGTQVTVSS”, which “polyreactivity (PSR sort gate)” value is on record?
The value was “low polyreactivity”.

With “QVQLVESGGGLVQAGGSLRLSCAASGRTYAAYAMGWYRQAPGKERELVAAISIGGSTNYADSVKGRFTISRDNAKNTVYLLMNSLKPEDTAVYYCAAGTWAVSKYLEWLEFYYWGKGTQVTVSS” as the sequence, how does the “polyreactivity (PSR sort gate)” value read?
The value was “high polyreactivity”.

For “QVQLVESGGGLVQAGGSLRLSCAASGRTYFYNTMGWYRQAPGKESELVARITRGGSTYYADSVKGRFTISRDNAKNTVYLQMPSLKPEDTAFYYCAAGYWRGYFLYGFDYWGQGTQVTVSS”, which “polyreactivity (PSR sort gate)” value is on record?
Its value is “high polyreactivity”.

Which “polyreactivity (PSR sort gate)” value does the source give for “QVQLVESGGGLVQAGGSLRLSCAASGRTYHAYAMGWYRQAPGKGRELVAAITRTGTTHYADSVKGRFTISRDNAKNTVYLQMNSLKPEETAVYYCNKATQFYQWGASPYYPRRDYWGQGTQVTVSS” here?
Its value is “low polyreactivity”.

For “QVQLVESGGGLVQAGGSLRLSCAASGRTYRQNAMGWYRQAPGKEGELVAAISSSGTNTHYADSVKGRFTISRDNAKNTVYLQMTSLKPEDTAVYYCAADSWGARRKQYHENGYWGQGSQVTVSS”, which “polyreactivity (PSR sort gate)” value is on record?
Its value is “high polyreactivity”.
